One data set deals with PDGF-BB (human, UniProt P01127 82-190). Put plainly: strand-displacement fluorescence (Rep-2); 50 nM PDGF; 5 mM Mg2+; 20 mM Tris-HCl pH 7.5 (22 °C), 100 mM NaCl, 0.1 mM EDTA, 5 mM MgCl2 (20 mM MgCl2 for DNAzyme), room temperature; indirect read-out by strand-displacement fluorescence. The settings on record: protein: recombinant; chain copies: 2; hairpin, 2-bp stem.
The target of the next data set is Thrombin (UniProt P00734;P00734 328-363;364-622). Put plainly: strand-displacement fluorescence (Rep-2); 2-500 nM thrombin; LOD 0.96 nM; 5 mM Mg2+; 20 mM Tris-HCl pH 7.5 (22 °C), 100 mM NaCl, 0.1 mM EDTA, 5 mM MgCl2 (20 mM MgCl2 for DNAzyme), room temperature; indirect read-out by strand-displacement fluore.

Sequence of PDGF-BB (P01127 82-190): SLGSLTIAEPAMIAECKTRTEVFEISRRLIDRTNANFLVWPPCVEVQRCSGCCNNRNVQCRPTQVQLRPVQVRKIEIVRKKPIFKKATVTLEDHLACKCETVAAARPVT

B1: Apt-PDGF-2bp (structured_DNA)
DNA: ATGTCAACGTTGGCTACGGCACGTAGAGCATCACCATGATCCTTGGATAGGTAGGGTACGCT
With B1, in the data set with PDGF-BB, the binding result was “binds”.

B2: Apt-Thr-3bp (= Apt-Thr-OR, Apt-Thr-NOT) (structured_DNA)
DNA: ATGTCAACGTTGTCCGTGGTAGGGCAGGTTGGGGTGACTTGGATAGGTAGGGTACGCT
As to B2, the binding result in the data set with Thrombin is given as “binds”.

The values are drawn from PMC8329073, “A kinetically controlled platform for ligand-oligonucleotide transduction”.
